# Measurements reported in patent US11352399B2, “Peptide for toll-like receptor (TLR) inhibition and pharmaceutical composition comprising same” (GENESEN CO., LTD., priority 2017, dated 2022).
# Columns and labels:
# TLR3 = target: T1, TLR3 (Mus musculus, UniProt Q99MB1); assay: TNF-α and IFN-β secretion in RAW 264.7 cells with Poly(I:C); format: cell-based
# T1 construct: host or cells: RAW 264.7
# T1 sequence (Q99MB1 26-905): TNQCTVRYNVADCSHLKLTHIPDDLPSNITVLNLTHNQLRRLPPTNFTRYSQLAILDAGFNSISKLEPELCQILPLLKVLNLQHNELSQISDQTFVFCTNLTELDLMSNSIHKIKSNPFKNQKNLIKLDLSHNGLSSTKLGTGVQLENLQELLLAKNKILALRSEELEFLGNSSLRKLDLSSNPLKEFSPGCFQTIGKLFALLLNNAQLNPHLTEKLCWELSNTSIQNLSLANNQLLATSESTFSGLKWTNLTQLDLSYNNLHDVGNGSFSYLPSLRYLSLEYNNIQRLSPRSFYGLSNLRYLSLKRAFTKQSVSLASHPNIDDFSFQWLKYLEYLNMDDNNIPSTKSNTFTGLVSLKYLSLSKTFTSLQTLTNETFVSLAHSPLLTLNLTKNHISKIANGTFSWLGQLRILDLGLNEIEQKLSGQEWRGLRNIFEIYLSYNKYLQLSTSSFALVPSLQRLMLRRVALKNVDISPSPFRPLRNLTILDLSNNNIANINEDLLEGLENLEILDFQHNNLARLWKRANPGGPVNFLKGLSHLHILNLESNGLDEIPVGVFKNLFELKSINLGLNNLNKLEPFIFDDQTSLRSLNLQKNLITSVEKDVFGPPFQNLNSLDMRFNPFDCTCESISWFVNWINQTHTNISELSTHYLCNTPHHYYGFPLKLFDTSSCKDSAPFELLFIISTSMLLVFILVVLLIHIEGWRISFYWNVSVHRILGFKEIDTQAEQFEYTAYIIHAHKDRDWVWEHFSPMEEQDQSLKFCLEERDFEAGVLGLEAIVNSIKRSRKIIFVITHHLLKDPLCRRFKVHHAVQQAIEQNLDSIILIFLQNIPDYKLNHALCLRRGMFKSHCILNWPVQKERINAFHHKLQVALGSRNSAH
# hTLR4 (human TLR4) = target: T2, hTLR4 (human TLR4) (Homo sapiens, UniProt O00206); assay: SEAP activity (NF-κB activity) in HEK-Blue-hTLR4 cells; format: cell-based
# T2 construct: host or cells: HEK-Blue-hTLR4 (HEK293-derived reporter line)
# T2 sequence (O00206 24-839): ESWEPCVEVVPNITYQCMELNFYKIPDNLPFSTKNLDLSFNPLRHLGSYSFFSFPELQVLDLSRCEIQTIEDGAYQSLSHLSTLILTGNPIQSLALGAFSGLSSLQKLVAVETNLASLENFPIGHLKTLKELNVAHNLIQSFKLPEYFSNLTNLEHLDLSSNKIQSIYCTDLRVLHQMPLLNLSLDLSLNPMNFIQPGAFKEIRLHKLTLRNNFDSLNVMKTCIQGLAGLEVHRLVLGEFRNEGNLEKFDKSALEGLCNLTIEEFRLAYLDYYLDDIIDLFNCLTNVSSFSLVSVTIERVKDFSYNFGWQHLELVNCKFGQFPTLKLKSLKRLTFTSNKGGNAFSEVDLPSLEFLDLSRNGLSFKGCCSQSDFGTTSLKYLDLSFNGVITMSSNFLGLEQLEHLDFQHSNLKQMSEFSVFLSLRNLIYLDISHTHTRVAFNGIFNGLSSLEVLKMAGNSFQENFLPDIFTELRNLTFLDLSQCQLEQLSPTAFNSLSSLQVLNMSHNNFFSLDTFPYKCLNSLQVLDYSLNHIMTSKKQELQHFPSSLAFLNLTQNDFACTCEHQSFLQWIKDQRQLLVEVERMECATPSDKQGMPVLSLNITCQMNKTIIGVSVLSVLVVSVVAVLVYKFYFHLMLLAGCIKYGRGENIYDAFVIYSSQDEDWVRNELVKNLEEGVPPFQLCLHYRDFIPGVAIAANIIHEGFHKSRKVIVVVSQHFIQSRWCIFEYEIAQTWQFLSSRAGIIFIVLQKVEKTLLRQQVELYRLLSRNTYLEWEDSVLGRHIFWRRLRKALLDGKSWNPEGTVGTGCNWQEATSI
# T2 sequence (Q9Y6Y9 17-160 partner limits assumed): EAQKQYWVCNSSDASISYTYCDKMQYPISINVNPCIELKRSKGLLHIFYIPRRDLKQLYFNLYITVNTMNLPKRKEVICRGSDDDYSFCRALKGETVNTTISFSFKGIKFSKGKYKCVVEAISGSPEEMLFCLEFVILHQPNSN
# Description: HEK-Blue™-hTLR4 cells were dispensed into 24-well plates (BD Biosciences) to a cell number of 2×10^5 cells/well, and incubation was performed overnight. The next day, the culture was removed and medium replacement was performed. Then, a portion (200 μl) of the culture was transferred to a microcentrifuge tube and heated at 65° C. for 10 minutes using a heating block (FINEPCR. Co., Seoul, Korea). Subsequently, the culture was transferred to 96-well plates (BD Biosciences), and absorbance was measured at 405 nm using the HEK-Blue™ detection kit (InvivoGen) and a microplate reader spectrophotometer (Molecular Devices Inc., Silicon Valley, Calif., USA), to analyze an expression level of SEAP (secreted alkaline phosphatase).
# To this end, the inducible secreted embryonic alkaline phosphatase (SEAP) reporter gene was placed under the control of an IL-12 p40 minimal promoter (IL-12 p40 is produced by activation of NF-κB and AP-1 (activator protein 1) after stimulation of TLR4) which contains sites where DNAs of NF-κB and AP-1 bind. Then, HEK-Blue™-hTLR4 cells were treated with varying concentrations of TIP or TIP (TIP W/O CPP), to which CPP is not linked, at 12.5, 25, 50 μM, and then an average value of SEAP activity was calculated to measure TLR4 activity. The results are illustrated in FIGS. 1(a) and 1(b).
# The results are illustrated in FIGS. 12(a) and 12(b).
# [1] = system: LPS-injected C57BL/6J mice; assay: Plasma cytokine secretion in LPS-injected mice; format: in vivo, mouse; settings: TIP1 10 nmol/g i.p., 1 hour later LPS 5 μg/g, blood 1 or 2 hours
# Description: All animal experiments were conducted under approval of the Institutional Animal Care and Use Committee (KHNMC AP 2016-006). […] The control was injected with the same volume of PBS. Subsequently, the plasma was isolated through centrifugation from the mouse blood and stored at −80° C. until analysis of secretion levels. TNF-α, IL-12p40 (diluted at 1:100), and IL-6 (diluted at 1:100) levels in the plasma were measured using mouse TNF-α, IL-12p40, IL-6 ELISA MAX Deluxe ELISA kits (BioLegend, San Diego, Calif., USA). Absorbance was measured at 450 nm using a microplate reader spectrophotometer (Molecular Devices In.), and the results were analyzed using Softmax Pro 5.3 software (Molecular Devices Inc.). The results are illustrated in FIGS. 14(a)-14(c).
sequence,measurement,setting,value
RQIKIWFQNRRMKWKKSHCRVLLI (TIP1),secretion level of TNF-α,TLR3; Poly(I:C) (TLR3),decreased
same,decrease of TNF-α secretion (inhibitory effect on TLR3 signaling),"TLR3; Poly(I:C), at 50 μM",92%
same,secretion level of IFN-β,"TLR3; TIP1 together with Poly(I:C), ELISA",decreased
same,LPS-induced SEAP activity,"hTLR4 (human TLR4); TIP 12.5, 25, 50 μM, then LPS, FIG. 1(a)",decreased LPS-induced SEAP activity in a concentration-dependent manner
same,NF-κB activity (SEAP activity),"hTLR4 (human TLR4); together with LPS, FIG. 12(a)",highest inhibitory effect on NF-κB activity
same,secretion level of IL-6 in plasma,[1],remarkably decreased
same,secretion level of IL-12p40 in plasma,[1],remarkably decreased
same,secretion level of TNF-α in plasma,[1],remarkably decreased
